Assay: soluble on expression in E. coli; label from the status in PepcDB or PDB records

Row | Sequence | soluble on expression in E. coli
1 | VLFRQLEYFVAVAQERHFARAAEKCYVSQPALSSAIAKLERELNVTLINRGHSFEGLTREGERLVVWAKRILAEHAAFKAEVDAVRSGITGTLRLGTVPTASTTASLVLSAFCSAHPLAKVQVCSRLAATELYRRLREFELDAVIVHPETQDSDDVDLVPLYEEQYVLLSPADMLPPGTSTLVWRDAAQLPLALLTADMRDRQVIDAAFADHAVSAIPQVETDSVASLFAQVATGNWASIVPHTWLWAMPMSGPTGGEIRAVELVDPVLKAQIALATNALGPGSPVARALITCAQALALNEFFDTQLRGITRRR | not soluble
2 | VNDNQLAPVARPRSPLELLDTVPDSLLRRLKQYSGRLATEAVSAMQERLPFFADLEASQRASVALVVQTAVVNFVEWMHDPHSDVGYTAQAFELVPQDLTRRIALRQTVDMVRVTMEFFEEVVPLLARSEEQLTALTVGILKYSRDLAFTAATAYADAAEARGTWDSRMEASVVDAVVRGDTGPELLSRAAALNWDTTAPATVLVGTPAPGPNGSNSDGDSERASQDVRDTAARHGRAALTDVHGTWLVAIVSGQLSPTEKFLKDLLAAFADAPVVIGPTAPMLTAAHRSASEAISGMNAVAGWRGAPRPVLARELLPERALMGDASAIVALHTDVMRPLADAGPTLIETLDAYLDCGGAIEACARKLFVHPNTVRYRLKRITDFTGRDPTQPRDAYVLRVAATVGQLNYPTPH | not soluble
3 | VPACTVSNTTVDWQDVEIQTLSQNGNHEKEFTVNMRCPYNLGTMKVTITATNTYNNAILVQNTSNTSSDGLLVYLYNSNAGNIGTAITLGTPFTPGKITGNNADKTISLHAKLGYKGNMQNLIAGPFSATATLVASYS | soluble
4 | VPGTLLPRLPSEPGMTLLTIRIEKIGLKDAGQCIDPYITVSVKDLNGIDLTPVQDTPVASRKEDTYVHFNVDIELQKHVEKLTKGAAIFFEFKHYKPKKRFTSTKCFAFMEMDEIKPGPIVIELYKKPTDFKRKKLQLLTKKPLYLHLHQSLHKE | soluble
5 | VPMDELNERIFKEVVMYLRQHIKNYDNILDALRSTFHSTNHVEKLFFGGKINMLNQPEFHDITRVRSLLSLIEKEQDVLKLVQSPHTGISIKIGKENDYEEMENCSLITASYSVDQKQIGSIAIIGPTRMNYSRVVSLLQHVTSDLSKALTSLYDE | not soluble
6 | VPVQLADLKEVRIAYQSIGSESDPALLLVMGLGGQLIHWPDEVVVALCQQGYRVIRYDNRDVGLSTWVQQPADANLTVEVLRYKLGLPVSSPYSLTDMADDALGLMDALQIRQFHVLGASMGGMIAQHLADLAPSRVESLTLIMTSSGAQGLPMPNAALLQLLARRGAPDREVALEQQADLLAALGSPQVKDDREQLLHQAAVSYDRAFNPEGVKRQIMAILAEPSRVELLNRLRLPVLVVHGTADPLLPVMHGVHVAAHIQGSQLRLIPGLAHRFQEAFKAPLLGAVLPYLKA | not soluble
7 | VRRLLIVHHTPSPHMQEMFEAVVSGATDPEIEGVEVVRRPALTVSPIEMLEADGYLLGTPANLGYISGALKHAFDVCYYLCLDTTRGRSFGAYIHGNEGTEGAERAVDAITTGLGWVQAAETVVVMGKPSKADIEACWNLGATVAAQLMG | soluble
8 | VSKAVQYMAKRRIGALIVFEKETGLQDYIETGIPMNSDISQELLTNVFIPNTPLHDGAMIIQGSKIAVAASYLPLSDSVKISKSLGTRHRAAVGISEVSDAFTVVVSEETGDISVTFDGKLRRDISKDVFEELLAEHWFGAHFQKKGVNS | not soluble
9 | VTGPTEESAVATVADWPEGLAAVLRGAADQARAAVVEFSGPEAVGDYLGVSYEDGNAATHRFIAHLPGYQGWQWAVVVASYSGADHATISEVVLVPGPTALLAPDWVPWEQRVRPGDLSPGDLLAPAKDDPRLVPGYTASGDAQVDETAAEIGLGRRWVMSAWGRAQSAQRWHDGDYGPGSAMARSTKRVCRDCGFFLPLAGSLGAMFGVCGNELSADGHVVDRQYGCGAHSDTTAPAGGSTPIYEPYDDGVLDIIEKPAES | soluble
10 | VTQQSRQLLDVTRIYYEPAAAELPRGRQVLERWPDATLVPVESHWRIPELHGDETNVDRWVRIKREALVLGIKKSLTAKPNGRSADFIAPSTANGCAMACAYCYVPRRKGYSNPITVFTNIEQITGYLERHVHRQGVKPEPNQCDPASWVYDLGENSDCSVDAEVSDNVDDLIALFRGLPTAKASFATKHVNRRLLTLDPQGRTRVRFSLMPARVAKLLDVRTSPVPERLGALDDFVAAGYEVHVNLSPVVVHEDWLPVWAALLDELGDATNDATKAQLQAEVIFLTHEENLHRVNLGWHPKAEDLLWRPAMQETKRSQNGGVNVRYRTGDKGRYVQQLLALIEERAPYLRVRYAF | soluble
11 | VTSPLLPQIGVDPPERGDAARNRRLLLDAAALLVAERGVDAVTMDAVACRAGVGKGTVFRRFGSRSGLMHALLDHTERELQQSFMFGPPPLGPGADPIDRLIAYGHARIAIVEVQGEVQRAAENSVEFRFAAPARAVSVRHVVSLLRAAGVRCDHELLACSLLAPLEATLVLHELRDLGMSVERLGAAWEDLIRRVTRC | not soluble
12 | VVELDETPVRTLLARQGIYDKNSAIVAYELLYRNSDAENSHVDNLNQSSGEAATSSVLVQLFANLDVNTIIGNKQAFINFTHSHLVQKIPMLLPKNRIVIEVLETVAIDQPLLLNLMELKKQGYQIALDDFVFRNELAPLVDMADIIKIDVLHLDQQQIAEQLLPLKSFRGKLLAEKIEDKQQFNHCVNLGFDFFQGFFLNKP | not soluble
13 | VVTCATDGNHGRSVAWGAQMFGCGCIIYIHRDVSEGRKVAMEAFDAEVIRITGNYDESVRQAGADAKAHGRIIVSDTSYEGYMEVPKDVALGYTVMLAETVEQLDGEIPTHVFVQGGVGGLASAVAGYFWDLWGDRRPRFVVVEPEQANCLQLSAKAGEPVVVKGDLDTLMAGLACGEVSLLAWQILSNGADDFMTLSEDAIADTMSLLAKGYKGDPAIEAGESAVPGLAAAINARAQDTFAKALNLDAQSKVLVIGTEGAT | not soluble
14 | WYNFTKRAVKIVLIPVSWFMKAERFAKFENNISEKIDSFYEESVRMTKDWR | not soluble
15 | YATPDNMLSRFGEQDLTLLTEREDSVPGEINLALLEQALSDASAEIDGYIAGRYVLPLTTVPAVLERNCCDIARYFLYGDKAPEQVEKRYAAVVKFLTAVSKGDISLGLATTGETADQSELVISIESAGSVFGRKSAKGF | not soluble
16 | YDQSSVLIVGDVMLDRYWGGPTSRISPEAPVPVVKVEKIEERPGGAANVAMNIAALGGDAHLVGLVGEDEPAQALTTTLESLKVHCDFVALPEFPTITKLRVMSRGQQLIRLDFEDSFHDVAAEPIISRMQQALSSVKAVVLSDYAKGALEHVQLMIQEARKVNVPVFIDPKGADFERYRGATLLTPNMLEFETVVGKVKDEDDLVAKGQQIIEEFDFEALLVTRSEHGMTLLRRNMEPLHLPTQAREVFDVTGAGDTVISVLAASVSTGKPLDEACALANAAAGVVVGKLGTSTLSTIELAEAIHG | not soluble
17 | YENIQNIEDFYRFINAHALAVVHIMRDNCTVCHAVLPQIQDLLKDYPKAQLGVINQSNVEEIAGELSIFTVPVDLIFLKGKEMHRQARFIDMQSFEKQLYMMQNAID | soluble
18 | YGNMTEDHVMHLLQNADPLKVYPPLKGSFPENLRHLKNTMETIDWKVFESWMHHWLLFEMSRHSLEQKPTDAPPK | soluble
19 | YHPVFSAKIEQRLIERFGVRRALIALDQPNDEAQRQQVAGLVSNYLTSTLKNGMVVTVGQGRNVSAVAHHVGVITPRDCKFVCSIGGIHPRGGMFNADHICRQLAKKYGGSSETLYAPAYAENPEQKRVFMQNSTVKQTLDLARKADIALVGIGDMSENSYMVDLGWFTPEEVVQSRLNQGVVGDFAGHDFFDVHGRIANTVMNDRVIGLGIDEFRPIAEVIAIAAENSKPLALLGALRTGAIDVIATSVSNALTVLNLDEQMQTALSAS | not soluble
20 | YHSTDGDTILVGKNNKQNDYLTNKKARKNHLWFHTKDIPGSHVVILNESPSETTIKEAAMLAGYFSKAGSSAQIPVDYTEIRHVHK | not soluble
21 | YLDVRQVMYTLVAVFIGSRVIDFVQEGAYAARGALIISKDNDAIASHVMLSMNRGVTVLEGRGGFSKNEQDVLYIVVAKNEIVQLKNIVQAIDPHAFVSVSVVHDVMGEGFTLDENKNPIY | not soluble
22 | YLELNEIESIIKDINTKAQKMHSGIHKRFYLFVALMTEFQALNGMRIGEMLAIQNEDIDFDNKSLNINGTIHWFHDESGGFGVKDTTKTESSYRTIGLSSRSCEILKKAILENKKDSKWNDGYLNRNFVFTNHKGNPMQTERFNKILREAAKDVGIDKEVSSHILRHSHISLLSQQGVSLKAIMDRVGHSDHRTTLSIYSHVTEQMDKDMMNKLEQVKLG | soluble
23 | YNPIDNIQNATNRRNTVLANMVDDEKLSQADADSAAGVDMASRLVDTYQGTGDDYRYPSYFDAVIEEATKTYGLSEDEIVKNGY | not soluble
24 | YRRFEKEKLKSQWNNDNPLFKSATTTVMNPKFAES | soluble

— the DeepSol protein solubility set
